Data from IntAct's records for PubMed 31515488.

B1: Protein dispatched homolog 1 (Homo sapiens), Q96F81 (parent)
chain: MAMSNGNNDFVVLSNSSIATSAANPSPLTPCDGDHAAQQLTPKEATRTKVSPNGCLQLNGTVKSSFLPLDNQRMPQMLPQCCHPCPYHHPLTSHSSHQECHPEAGPAAPSALASCCMQPHSEYSASLCPNHSPVYQTTCCLQPSPSFCLHHPWPDHFQHQPVQQHIANIRPSRPFKLPKSYAALIADWPVVVLGMCTMFIVVCALVGVLVPELPDFSDPLLGFEPRGTAIGQRLVTWNNMVKNTGYKATLANYPFKYADEQAKSHRDDRWSDDHYEREKREVDWNFHKDSFFCDVPSDRYSRVVFTSSGGETLWNLPAIKSMCNVDNSRIRSHPQFGDLCQRTTAASCCPSWTLGNYIAILNNRSSCQKIVERDVSHTLKLLRTCAKHYQNGTLGPDCWDMAARRKDQLKCTNVPRKCTKYNAVYQILHYLVDKDFMTPKTADYATPALKYSMLFSPTEKGESMMNIYLDNFENWNSSDGVTTITGIEFGIKHSLFQDYLLMDTVYPAIAIVIVLLVMCVYTKSMFITLMTMFAIISSLIVSYFLYRVVFHFEFFPFMNLTALIILVGIGADDAFVLCDVWNYTKFDKPHAETSETVSITLQHAALSMFVTSFTTAAAFYANYVSNITAIRCFGVYAGTAILVNYVLMVTWLPAVVVLHERYLLNIFTCFKKPQQQIYDNKSCWTVACQKCHKVLFAISEASRIFFEKVLPCIVIKFRYLWLFWFLALTVGGAYIVCINPKMKLPSLELSEFQVFRSSHPFERYDAEYKKLFMFERVHHGEELHMPITVIWGVSPEDNGNPLNPKSKGKLTLDSSFNIASPASQAWILHFCQKLRNQTFFYQTDEQDFTSCFIETFKQWMENQDCDEPALYPCCSHWSFPYKQEIFELCIKRAIMELERSTGYHLDSKTPGPRFDINDTIRAVVLEFQSTYLFTLAYEKMHQFYKEVDSWISSELSSAPEGLSNGWFVSNLEFYDLQDSLSDGTLIAMGLSVAVAFSVMLLTTWNIIISLYAIISIAGTIFVTVGSLVLLGWELNVLESVTISVAVGLSVDFAVHYGVAYRLAPDPDREGKVIFSLSRVGSAMAMAALTTFVAGAMMMPSTVLAYTQLGTFMMLIMCISWAFATFFFQCMCRCLGPQGTCGQIPLPKKLQCSAFSHALSTSPSDKGQSKTHTINAYHLDPRGPKSELEHEFYELEPLASHSCTAPEKTTYEETHICSEFFNSQAKNLGMPVHAAYNSELSKSTESDAGSALLQPPLEQHTVCHFFSLNQRCSCPDAYKHLNYGPHSCQQMGDCLCHQCSPTTSSFVQIQNGVAPLKATHQAVEGFVHPITHIHHCPCLQGRVKPAGMQNSLPRNFFLHPVQHIQAQEKIGKTNVHSLQRSIEEHLPKMAEPSSFVCRSTGSLLKTCCDPENKQRELCKNRDVSNLESSGGTENKAGGKVELSLSQTDASVNSEHFNQNEPKVLFNHLMGEAGCRSCPNNSQSCGRIVRVKCNSVDCQMPNMEANVPAVLTHSELSGESLLIKTL
partner: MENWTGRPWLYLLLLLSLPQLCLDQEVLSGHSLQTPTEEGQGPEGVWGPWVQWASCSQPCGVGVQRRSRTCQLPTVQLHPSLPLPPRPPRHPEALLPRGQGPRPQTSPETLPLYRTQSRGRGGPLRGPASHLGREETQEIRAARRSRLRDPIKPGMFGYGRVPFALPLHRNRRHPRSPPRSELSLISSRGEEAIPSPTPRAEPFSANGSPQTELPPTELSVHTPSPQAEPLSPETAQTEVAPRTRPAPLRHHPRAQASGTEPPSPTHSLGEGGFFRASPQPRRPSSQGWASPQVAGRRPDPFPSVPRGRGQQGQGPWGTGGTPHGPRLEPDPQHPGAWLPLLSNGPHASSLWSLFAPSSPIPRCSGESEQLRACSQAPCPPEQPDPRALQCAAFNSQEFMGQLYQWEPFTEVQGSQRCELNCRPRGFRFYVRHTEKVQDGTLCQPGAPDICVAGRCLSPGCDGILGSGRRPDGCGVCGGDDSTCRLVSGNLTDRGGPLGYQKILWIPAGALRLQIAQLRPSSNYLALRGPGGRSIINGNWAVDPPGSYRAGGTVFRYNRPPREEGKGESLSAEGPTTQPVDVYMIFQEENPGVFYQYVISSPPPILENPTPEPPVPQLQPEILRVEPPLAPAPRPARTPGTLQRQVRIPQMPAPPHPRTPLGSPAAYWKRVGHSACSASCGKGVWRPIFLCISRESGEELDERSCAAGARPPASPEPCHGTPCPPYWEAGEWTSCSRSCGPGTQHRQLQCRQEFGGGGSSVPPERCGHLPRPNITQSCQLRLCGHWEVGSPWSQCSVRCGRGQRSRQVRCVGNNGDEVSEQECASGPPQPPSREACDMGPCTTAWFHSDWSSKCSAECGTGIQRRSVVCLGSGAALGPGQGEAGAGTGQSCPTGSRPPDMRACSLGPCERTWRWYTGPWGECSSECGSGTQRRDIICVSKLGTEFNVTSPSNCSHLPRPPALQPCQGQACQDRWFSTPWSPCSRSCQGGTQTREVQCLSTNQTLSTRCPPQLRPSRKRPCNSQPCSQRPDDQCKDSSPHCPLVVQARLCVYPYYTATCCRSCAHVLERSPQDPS
B2: Proto-oncogene serine/threonine-protein kinase mos (Homo sapiens), P00540 (parent)
chain: MPSPLALRPYLRSEFSPSVDARPCSSPSELPAKLLLGATLPRAPRLPRRLAWCSIDWEQVCLLQRLGAGGFGSVYKATYRGVPVAIKQVNKCTKNRLASRRSFWAELNVARLRHDNIVRVVAASTRTPAGSNSLGTIIMEFGGNVTLHQVIYGAAGHPEGDAGEPHCRTGGQLSLGKCLKYSLDVVNGLLFLHSQSIVHLDLKPANILISEQDVCKISDFGCSEKLEDLLCFQTPSYPLGGTYTHRAPELLKGEGVTPKADIYSFAITLWQMTTKQAPYSGERQHILYAVVAYDLRPSLSAAVFEDSLPGQRLGDVIQRCWRPSAAQRPSARLLLVDLTSLKAELG
partner: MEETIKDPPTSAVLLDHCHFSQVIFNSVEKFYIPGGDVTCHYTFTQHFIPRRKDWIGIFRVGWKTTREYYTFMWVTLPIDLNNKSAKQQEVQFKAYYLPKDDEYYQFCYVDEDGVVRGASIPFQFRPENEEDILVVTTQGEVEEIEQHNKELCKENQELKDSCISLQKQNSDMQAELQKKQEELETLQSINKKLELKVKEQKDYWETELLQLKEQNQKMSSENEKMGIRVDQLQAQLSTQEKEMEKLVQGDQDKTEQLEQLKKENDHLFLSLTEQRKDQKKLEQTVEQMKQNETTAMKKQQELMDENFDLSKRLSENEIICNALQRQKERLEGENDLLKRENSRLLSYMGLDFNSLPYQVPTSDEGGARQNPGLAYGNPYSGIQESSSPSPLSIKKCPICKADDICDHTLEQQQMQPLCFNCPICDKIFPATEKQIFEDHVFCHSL
B3: Isoform Long of Autophagy protein 5 (Homo sapiens), Q9H1Y0-1 (parent)
chain: MTDDKDVLRDVWFGRIPTCFTLYQDEITEREAEPYYLLLPRVSYLTLVTDKVKKHFQKVMRQEDISEIWFEYEGTPLKWHYPIGLLFDLLASSSALPWNITVHFKSFPEKDLLHCPSKDAIEAHFMSCMKEADALKHKSQVINEMQKKDHKQLWMGLQNDRFDQFWAINRKLMEYPAEENGFRYIPFRIYQTTTERPFIQKLFRPVAADGQLHTLGDLLKEVCPSAIDPEDGEKKNQVMIHGIEPMLETPLQWLSEHLSYPDNFLHISIIPQPTD
partner: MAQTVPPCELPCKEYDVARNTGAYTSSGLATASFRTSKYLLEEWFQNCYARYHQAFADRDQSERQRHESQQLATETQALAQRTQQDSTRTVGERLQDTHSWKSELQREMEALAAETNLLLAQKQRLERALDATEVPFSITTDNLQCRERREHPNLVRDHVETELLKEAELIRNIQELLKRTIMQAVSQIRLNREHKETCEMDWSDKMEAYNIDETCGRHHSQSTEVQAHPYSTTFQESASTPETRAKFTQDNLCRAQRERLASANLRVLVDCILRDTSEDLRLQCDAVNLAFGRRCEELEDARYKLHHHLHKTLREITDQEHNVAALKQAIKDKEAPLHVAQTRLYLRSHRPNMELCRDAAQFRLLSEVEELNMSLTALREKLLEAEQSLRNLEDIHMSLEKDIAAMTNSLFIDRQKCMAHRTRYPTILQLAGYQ
B4: Ornithine decarboxylase antizyme 3 (Homo sapiens), Q9UMX2 (parent)
chain: MPCKRCRPSVYSLSYIKRGKTRNYLYPIWSPYAYYLYCYKYRITLREKMLPRCYKSITYKEEEDLTLQPRSCLQCSESLVGLQEGKSTEQGNHDQLKELYSAGNLTVLATDPLLHQDPVQLDFHFRLTSQTSAHWHGLLCDRRLFLDIPYQALDQGNRESLTATLEYVEEKTNVDSVFVNFQNDRNDRGALLRAFSYMGFEVVRPDHPALPPLDNVIFMVYPLERDVGHLPSEPP
partner: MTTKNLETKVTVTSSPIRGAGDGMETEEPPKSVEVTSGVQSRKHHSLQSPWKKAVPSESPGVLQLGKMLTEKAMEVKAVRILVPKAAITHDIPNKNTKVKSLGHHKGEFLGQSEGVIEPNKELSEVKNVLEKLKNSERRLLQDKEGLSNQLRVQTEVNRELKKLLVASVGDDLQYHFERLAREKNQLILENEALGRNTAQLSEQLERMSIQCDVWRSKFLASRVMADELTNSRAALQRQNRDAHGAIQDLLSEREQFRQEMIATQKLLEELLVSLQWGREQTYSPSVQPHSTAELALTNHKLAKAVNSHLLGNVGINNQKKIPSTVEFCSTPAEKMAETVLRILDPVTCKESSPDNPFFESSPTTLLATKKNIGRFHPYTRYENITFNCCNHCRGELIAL
B5: Transcription factor 12 (Homo sapiens), Q99081 (parent)
chain: MNPQQQRMAAIGTDKELSDLLDFSAMFSPPVNSGKTRPTTLGSSQFSGSGIDERGGTTSWGTSGQPSPSYDSSRGFTDSPHYSDHLNDSRLGAHEGLSPTPFMNSNLMGKTSERGSFSLYSRDTGLPGCQSSLLRQDLGLGSPAQLSSSGKPGTAYYSFSATSSRRRPLHDSAALDPLQAKKVRKVPPGLPSSVYAPSPNSDDFNRESPSYPSPKPPTSMFASTFFMQDGTHNSSDLWSSSNGMSQPGFGGILGTSTSHMSQSSSYGNLHSHDRLSYPPHSVSPTDINTSLPPMSSFHRGSTSSSPYVAASHTPPINGSDSILGTRGNAAGSSQTGDALGKALASIYSPDHTSSSFPSNPSTPVGSPSPLTGTSQWPRPGGQAPSSPSYENSLHSLQSRMEDRLDRLDDAIHVLRNHAVGPSTSLPAGHSDIHSLLGPSHNAPIGSLNSNYGGSSLVASSRSASMVGTHREDSVSLNGNHSVLSSTVTTSSTDLNHKTQENYRGGLQSQSGTVVTTEIKTENKEKDENLHEPPSSDDMKSDDESSQKDIKVSSRGRTSSTNEDEDLNPEQKIEREKERRMANNARERLRVRDINEAFKELGRMCQLHLKSEKPQTKLLILHQAVAVILSLEQQVRERNLNPKAACLKRREEEKVSAVSAEPPTTLPGTHPGLSETTNPMGHM
partner: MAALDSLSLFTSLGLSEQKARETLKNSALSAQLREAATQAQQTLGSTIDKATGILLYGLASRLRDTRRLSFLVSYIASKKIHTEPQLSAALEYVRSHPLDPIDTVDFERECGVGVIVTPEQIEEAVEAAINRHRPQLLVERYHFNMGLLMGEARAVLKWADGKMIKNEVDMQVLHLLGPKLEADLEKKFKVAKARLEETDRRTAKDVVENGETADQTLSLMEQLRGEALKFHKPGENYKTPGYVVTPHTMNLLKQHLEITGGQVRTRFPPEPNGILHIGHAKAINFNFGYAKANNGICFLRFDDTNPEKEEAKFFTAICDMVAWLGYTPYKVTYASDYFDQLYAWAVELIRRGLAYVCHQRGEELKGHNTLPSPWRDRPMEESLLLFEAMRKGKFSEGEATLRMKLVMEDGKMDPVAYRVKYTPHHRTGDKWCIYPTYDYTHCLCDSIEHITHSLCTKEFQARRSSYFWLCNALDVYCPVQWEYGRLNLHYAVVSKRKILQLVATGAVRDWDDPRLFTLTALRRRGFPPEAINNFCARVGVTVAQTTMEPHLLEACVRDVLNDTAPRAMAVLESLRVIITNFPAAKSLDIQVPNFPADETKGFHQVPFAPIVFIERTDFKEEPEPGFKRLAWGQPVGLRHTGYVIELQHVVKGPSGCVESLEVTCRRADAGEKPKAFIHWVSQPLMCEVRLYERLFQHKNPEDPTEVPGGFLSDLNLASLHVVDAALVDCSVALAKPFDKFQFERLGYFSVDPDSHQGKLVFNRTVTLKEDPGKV

Variants of: B1
Conditions: with atl4_human ADAMTSL4, Q6UY14

Row | effect of a mutation on the interaction | Variant
1 | with no effect | E103D
2 | with no effect | E103K

Variants of: B2
Conditions: with caco2_human CALCOCO2, Q13137

Row | effect of a mutation on the interaction | Variant
3 | disrupting interaction strength | A123T
4 | with no effect | A105S

Variants of: B3
Conditions: with tekt4_human TEKT4, Q8WW24

Row | effect of a mutation on the interaction | Variant
5 | with no effect | K58M

Variants of: B4
Conditions: with go45_human BLZF1, Q9H2G9

Row | effect of a mutation on the interaction | Variant
6 | with no effect | R193Q
7 | disrupting interaction strength | V174A

Variants of: B5
Conditions: with syq_human QARS1, P47897

Row | Variant | effect of a mutation on the interaction
8 | A458V | with no effect
9 | I11M | with no effect

The remaining lines, values ahead:

Row | effect of a mutation on the interaction | Variant
10 | with no effect | D565V
11 | with no effect | G300S
